Assay results from a protein production outcome set (Wang et al. 2014).

Assay: label from the status in PepcDB records

**Q.** For “MRVYDMHVHLHEYSDREVEEILDADKSLVVVAVSDDLESAWRTLDLWHTFGGRVVPCLGFHPWNVREGRVWEAWEVLRLAYRYGVPCLGEVGLDRRFVDEYTWRVQNEVFDAFVQLAEDMGVMLNIHAPDAWKHVAHRIGWTSRARFMYHWYTGPATLPRALPEGRVWFSINSAIRVQEKSVRVAREIPLRSLVVESDGPYNYRGLRLSPLMVRETVKLVAEARGEDPGRLMEAISLNSERLLGLL”, which protein production is on record?
**A.** failed

**Q.** For “MGSSHHHHHHSSGRENLYFQGSQRPVDRNPPRINLMPTGANRVAMRNRGNNEADAALQALAQNGINMEDLRAALEAYIVWLRPIPLDIANALEGVGITPRFDNPEEAKVDNPLMNLSSALKRRLDA”, which protein production is on record?
**A.** not failed

**Q.** For “MVRVCACLIVKNEAAHLARCLGSVQPWVDDIVVVDTGSTDETPAIARQFTERLFTFPWQDDFAAARNYSLEQATGDWILVIDADEVLVTLQEPPVPLGQQLAGSPFTAYQLLRREIGTGEQFSDFAIVRLFRNLPTLRYQGRFHEQLVSTAAAPLTIGTLETLRIDHYGYQPAQIQAKMRDRNIPILERIRASEGLPLHLLFALADMYQAVNNPVEAENCYQELFDRLLPHLLSGQLPENAPGALPEILNQLGRRLLATGDHDTLQLLCQQGLAWFPTYPPLNDLAGRWLMTLGFPLGATAYFEYCLELGRTNGYSKQMIFPLGYVREIAAEQLGRAYEALGDRERAAAAFAQAAALRQGKAHPQLEHHHHHH”, which protein production is on record?
**A.** not failed

**Q.** With “MTLQLNFGRVEDMNKSSLTTTALTILRVIAGFLFAAHGWQKFNEFTIAGTQASFTQMGVPGASAVAPIVATLELVGGIALIIGLLTRVFAALLAVNMLGALFLVHAPAGVFVGNGGYELVLLFAGAALALALAGAGRISADAALFGRQSSKLRVLA” as the sequence, how does the protein production read?
**A.** failed

**Q.** For “MDPLLVTVITTCGKVFQFHVDRRRNVGYLKKRISKEGKGFPEVDDQEILFKGEKLDDNRIIDGICKDGNSVIHLLVKKS”, which protein production is on record?
**A.** not failed

**Q.** Which protein production does the source give for “SVVAKVKIPEGTILTMDMLTVKVGEPKGYPPEDIFNLVGKKVLVTVEEDDTIMEELVDNHGKKIKS” here?
**A.** not failed

**Q.** Which protein production does the source give for “MKDEVQLKKYLPSLIFAIILPVIAYLFLKMLGNSDTLALGIATAFPVVHMLWSLIRKKELNPVSLVAIIGFLISLLAVYLTHGNNLAFKLWHPILTAAIGTIFLLSVLLNRPLLELASEGENHRKMLIMTLFMGLVFIFHALSVILLAFFVETTAFVLLSKVIDFSAVGVLVLGLAFLRKKLN” here?
**A.** failed

**Q.** With “MSEELMISPAAPAAPAAGSALTSAQFRKLAEVPPEIEWFANIDSLQTRRAYQNDLRGFMAFAGIVSPEDFRLITRSHVLAWRKRLEEEQLGGATIRRKLAALSSLFEYLCEANAVTHNPVKGVKRPPVESWQGKTPALGDVQARALLEAPNAKTLKGKRDRAILSALLYHGIRREELARLKVKDYNQSRRGVPHLRIKGKGGKMRFIPTHPGTLTLIEEYLEAAGHGHDPDAPLFRPVKNNVHGHTLTALTPDSIYFEVVLKYLRKLGIFGENMGPHVMRATAATNALDNGADIAKVQEWLGHANIATTRIYDHRKTRPEDSPTFKVSY” as the sequence, how does the protein production read?
**A.** failed

**Q.** With “MNKAVETRLNKSRPGGWIPRDGAHIERWIRRIKHYVTQQPRALVPPIAELRDLVHANPALHAQAEAMFKEAWRHKHLTPLGQPEVRSFEEFLGLLNGIMTTAPEAYQDIPSHEPSGLIGFPINALLDWPMATQSGYHFFANALINQQFKKILDYWAQFLQSPASRYVLNEPVSRLDQETLVVPWLGKVAKAEMVKVANEAVGEGPNPTPGSFEQIFECEPAAEYHGFSCWDDFFTRRFRAGVRPVSAPTDDGVIVNACESAPLQVRKEVSRSDQFWLKGQPYSLDNMLDFDDLAPRFEGGTVYQAFLSALSYHRWHSPVSGTIRKVRIVNGTYYLENQFEGFADPQGADPSAPNNSQPFLTSVATRALIFIEADNPKIGLMCVVPVGMAEVSSCEITVQAGDRVQKGDPLGMFHFGGSTHCLLFRPGVRLEFDFHGQIPGLDATNMRLNTAIARVK” as the sequence, how does the protein production read?
**A.** failed

**Q.** For “HALQAGRLGSTVFVANLDYKVGWKKLKEVFSMAGVVVRADILEDKDGKSRGIGTVTFEQSIEAVQAISMFNGQLLFDRPMHVKMDERALPKGDFFPPERPQQ”, which protein production is on record?
**A.** failed

**Q.** With “MTMLLDGGPQFPGLGVGSFGAPRHHEMPNREPAGMGLNPFGDSTHAAAAAAAAAAFKLSPAAAHDLSSGQSSAFTPQGSGYANALGHHHHHHHHHHHTSQVPSYGGAASAAFNSTREFLFRQRSSGLSEAASGGGQHGLFAGSASSLHAPAGIPEPPSYLLFPGLHEQGAGHPSPTGHVDNNQVHLGLRGELFGRADPYRPVASPRTDPYAAGAQFPNYSPMNMNMGVNVAAHHGPGAFFRYMRQPIKQELSCKWIDEAQLSRPKKSCDRTFSTMHELVTHVTMEHVGGPEQNNHVCYWEECPREGKSFKAKYKLVNHIRVHTGEKPFPCPFPGCGKIFARSENLKIHKRTHTGEKPFKCEFEGCDRRFANSSDRKKHMHVHTSDKPYICKVCDKSYTHPSSLRKHMKVHESQGSDSSPAASSGYESSTPPAIASANSKDTTKTPSAVQTSTSHNPGLPPNFNEWYV” as the sequence, how does the protein production read?
**A.** not failed

**Q.** Which protein production does the source give for “MLKVSVITACFNSEKTIEDTILSVLHQTYKNIEYIIIDGASTDSTLEIIQKHRDKIACVMSEKDEGIYDAMNKGIKRSSGDIIALLNSDDFYKDEFVVEKVVHEFERKNCDSVYADLVFVKPDCLEKVVRYYEIGEFNPKTLLYGVVPAHPTLFVKKAIYERYGLYKTDYKISADFEMIIRLFVVQKISFSYLKEVLVVMRTGGVSASGFKSLLLRNKENIRACKENGIQANVFSMLLKYPRKIMGLFKRGKGGLKRND” here?
**A.** failed

**Q.** For “MTRVPFTQNYRWHLPLLLLVFCCSFFINNGAIFADIMESRNIITAREMVYDHNWLVPTMNGELRLEKPPLPTWIAAITEMISPDNLPLQRAMAGFAAVMLVLFFYKFATKLTDNRTYALVSSLVLCTSYNIILMGRTATWDIYCHAFMIGAIYYLYLALRQNTCKWTYFIGAGIFMGLSFLGKGPVSFYALLLPFVCAYILYYRKETQMKGKWIALAVMILIGIVLSTWWYAYIYIYHQEMASYVFHKESSSWSNHNVRSWYYYWQFFLETGVWSLLTLTTLLVPFWKKRVESSKEYLFCLSWMLLILFFLSLLPEKKTRYLLPILLPAALTMGHLFVYWIRQAKQKMPQLKDRVLYRINAYLIVVAALALPIALYLFMYREGRMGTGMFVWLVVLFLTVAVWLFRSAFKLQPFSFLMGIVALFAVAELFVMPYIGSFVSNSDPKSISATRENPELQPLPFYHSKDEVLRIELVYEAHKKIGDMDLSNKEEIIKALPFVLISQKPAELLIPDSIRKDLNLRFIDCYDNNRWAKGHKRYDSVFISNVTIVEPIKEQ”, which protein production is on record?
**A.** failed

**Q.** For “MKETYYFAYGSNMNLDQMAYRCPAASVVEPVHLEGYRLTFCGRGKGSGVATILPEEGSRVEGVLWKITPECEKSLDFYEGYPHLYGKEPVLVQGKDGMKREVMAYTMNAPYKDQPAIPSDLYFMGIVEGCHQNGISSRSVTDALKRVREEVGRQKPSQKKTEVSR”, which protein production is on record?
**A.** failed

**Q.** With “GTTVPAPIMQTTDNSLTWLLQNLLDRTPGTRHALVLSRDGLRLCWTEHLTLDRADQLAAICSGIQALAQGASVEFGNGTGGVRHSMTEFHGGLLFIVEAGEGAHLAVVAVEDADPGVVGHQMTELVEQIGEHLRAEPRH” as the sequence, how does the protein production read?
**A.** failed

**Q.** For “MSRFMARIMVNGLNEPGTLAKVAQTVAGLDVNIRLLNTVRVAADFTEMMLEVEVWDLRQLNQLLAQMKELDCIATVRRLYELEHHHHHH”, which protein production is on record?
**A.** not failed

**Q.** For “MNFSTSFWQGFRALVPLWLGTVPFALAYAVTARAAGLSVGDTCLMSLTTFAGASQFAAAGLFGAHAGGLSIVLTTFLLNARHLLYGLSLARELRLTLPQRVVAAQFLTDEAYGVAVVSGARLPGGLTFAFLLGAELSLYLSWNVSTLLGALAGSVLPPPEQLGVGVVFPLAFLGLLVPLVVDRLSLLVALAAGLGGWALSRVLPGGLVILLAGVGGALLGAALLTRREQRAGVRA”, which protein production is on record?
**A.** failed

**Q.** For “MRFLFSLIGLVYSSLIKLAVPFNPKARMMVRGRWKVWRQLREGIVPGGRYIWFHAASLGEFEQGRPMIERIRSEYPDYRIVLTFFSPSGYEVRKNYEGADVIVYLPADRLPRVRKFLDLVKPEMAIFIKYDFWPCFLTELERRQIPTYLVSSIFRPSQLFFRWYGGAYKRLLHCFTHIFVQDKASRLLLEKHGIDHVSVAGDTRFDRVISVYEARKSLPLIERFAASVPEDGLVIVGGSSWPPDEEILVRYFNRNPKIKLILAPHEIDKEHLLQIISHIRRPFIRLSEATESDIARQDCLIVDSFGLLSSIYRYGQVAFIGGGFGKGIHNTPEAAVYGIPVIFGPRYEKFKEARELIDVGGGFSVSSAEEFGNLIKRIQTDKAYRDAASRAAADYIRSNAGATGYIVHRIMKLEHHHHHH”, which protein production is on record?
**A.** not failed

**Q.** With “MKTITTFENKKVLVLGLARSGEAAARLLAKLGAIVTVNDGKPFDENPTAQSLLEEGIKVVCGSHPLELLDEDFCYMIKNPGIPYNNPMVKKALEKQIPVLTEVELAYLVSESQLIGITGSNGKTTTTTMIAEVLNAGGQRGLLAGNIGFPASEVVQAANDKDTLVMELSSFQLMGVKEFRPHIAVITNLMPTHLDYHGSFEDYVAAKWNIQNQMSSSDFLVLNFNQGISKELAKTTKATIVPFSTTEKVDGAYVQDKQLFYKGENIMSVDDIGVPGSHNVENALATIAVAKLAGISNQVIRETLSNFGGVKHRLQSLGKVHGISFYNDSKSTNILATQKALSGFDNTKVILIAGGLDRGNEFDELIPDITGLKHMVVLGESASRVKRAAQKAGVTYSDALDVRDAVHKAYEVAQQGDVILLSPANASWDMYKNFEVRGDEFIDTFESLRGE” as the sequence, how does the protein production read?
**A.** not failed

**Q.** Which protein production does the source give for “MDSDETGFEHSGLWVSVLAGLLLGACQAHPIPDSSPLLQFGGQVRQRYLYTDDAQQTEAHLEIREDGTVGGAADQSPESLLQLKALKPGVIQILGVKTSRFLCQRPDGALYGSLHFDPEACSFRELLLEDGYNVYQSEAHGLPLHLPGNKSPHRDPAPRGPARFLPLPGLPPALPEPPGILAPQPPDVGSSDPLSMVGPSQGRSPSYAS” here?
**A.** failed

**Q.** Which protein production does the source give for “MSERVKVAILGSGNIGTDLMYKLLKNPGHMELVAVVGIDPKSEGLARARALGLEASHEGIAYILERPEIKIVFDATSAKAHVRHAKLLREAGKIAIDLTPAARGPYVVPPVNLKEHLDKDNVNLITCGGQATIPLVYAVHRVAPVLYAEMVSTVASRSAGPGTRQNIDEFTFTTARGLEAIGGAKKGKAIIILNPAEPPILMTNTVRCIPEDEGFDREAVVASVRAMEREVQAYVPGYRLKADPVFERLPTPWGERTVVSMLLEVEGAGDYLPKYAGNLDIMTASARRVGEVFAQHLLGKPVEEVVA” here?
**A.** not failed

**Q.** Which protein production does the source give for “MVDINRRGALGSLLAGAGLAALPASAEAAQMGLLPAKPTSGPTWTTGIEGQRKADLGDGTFLNPILTGDRPDPSILKDGADYYMTHSSFDAYPGLLIWHSRDLVNWTPVTTTLKTNVGSIWAPELCKHKGRYYIYLPAKFPGNNTSYVIWADKIEGPWSEPIDLKLPRYIDPGHIVDEAGERWLFLSGGDRIKLAPDGLSTVGKPEHVYDPWRYPDDWDVEGFSPEGPKLMRRGEYFYMITAVGGTAGPPTGHMVIAARAKSLAGPWENHPRNPLVRTTDNAEKWWSRGHATLVEGPTPGDWWTVYHGYENGYYTLGRQTLLAPVTWTADGWFDIGGGDLSQPIKKPKGGKPGPHGMALSDDFSTDKYGVQWNFFDPKPGEQDRIKREGGVLTLKGAGEAPSTGSPLIFVNGDQAYEIECEIEIEPETRAGLILFYDRQLYCGLGFDAKNFVTHQYGIERGRPANPHGAKMLMRLRNNRHIVSFHTSGDGGKTWKRFDRGMEVSGYHHNVRGGFLMLKPGIYAAGKGSARFRGFKYRALP” here?
**A.** failed

**Q.** With “RIKPGPNGRALLFIHGTFSTTDGSFGDLASAEFFGELARTYGNAIYGFDHYSVSVTPEKNASDILKTLPSGGIDCDVVTHSRGGLVLRTLNERQGDLSQGKRFRLQRAALVACPNEGTQLATPDRWQGTLGWLANLLDLFPPNPITSNAALVMHWVTWFAKVGVAAAEG” as the sequence, how does the protein production read?
**A.** failed
